Test results from publication PMC5724361 (ACS chemical biology, 2017).

What was measured:
Aβ1–40 [1] = molecular target: T1, Aβ1–40 (Homo sapiens, UniProt P05067); experiment: IM-MS analysis of complex formation with Aβ1–40; assay type: binding; details: alanine substituted variants of leucine enkephalin
Aβ = details: incubated in excess with leucine enkephalin, compared with control; cited from earlier work
Aβ1–40 [2] = molecular target: T1, Aβ1–40; details: cited from earlier work

T1 sequence (P05067 672-711 limits assumed): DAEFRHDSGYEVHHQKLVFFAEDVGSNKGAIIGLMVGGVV

AGGFL: alanine substituted variant of leucine enkephalin (Leu-enkephalin; UniProt P01210 230-234, looked up, variant Y1A)
Complex formation with Aβ1–40 (IM-MS signal) (Aβ1–40 [1]): complexes formed

Leucine enkephalin acetate hydrate
Aβ fibrillation (TEM and gel) (Aβ): decreased Aβ fibrillation | Stoichiometric ratios of Aβ:leucine enkephalin complexes (Aβ1–40 [2]): 1:1 to 1:3, and from 2:1 to 2:3

YGAFL: alanine substituted variant of leucine enkephalin (Leu-enkephalin; UniProt P01210 230-234, looked up, variant G3A)
Complex formation with Aβ1–40 (IM-MS signal) (Aβ1–40 [1]): complexes formed

YGGAL: alanine substituted variant of leucine enkephalin (Leu-enkephalin; UniProt P01210 230-234, looked up, variant F4A)
Complex formation with Aβ1–40 (IM-MS signal) (Aβ1–40 [1]): no measureable complex signals

YGGFA: alanine substituted variant of leucine enkephalin (Leu-enkephalin; UniProt P01210 230-234, looked up, variant L5A)
Complex formation with Aβ1–40 (IM-MS signal) (Aβ1–40 [1]): no measureable complex signals
